According to US20240392013A1, “IL1RAP ANTIBODIES AND USES THEREOF” (STELEXIS THERAPEUTICS, LLC, priority 2021, published 2024):

Experiments:
[1] = system: IL36-induced downstream signaling (phospho-ERK, AKT, p38, NFκB) in HPAC, CAL33, 5637 cells; assay: IL36 signaling in solid tumor cancer cells, Western blot; format: cell-based; conditions: IL36γ, antibody 20 μg/ml
Description: (§1) AML patient samples or cancer cells (AML, chronic myelogenous leukemia (CML), pancreatic, head and neck squamous cell carcinoma (HNSCC), bladder, non-small-cell lung carcinoma (NSCLC), colorectal and triple-negative breast cancer (TNBC)) were seeded in 6-well plates (5×10^5 cells/well) and incubated overnight at 37° C./5% CO2 in humified incubator. In experiments conducted in cancer cell lines, cells were washed 2× with PBS and serum-starved for 3 hours. Following, cells were treated with IL1RAP antibodies at concentration of 20 μg/ml and incubated for 1 h at 37° C./5% CO2 in humidified incubator. After 1 h, cells were treated with IL1β (Invivogen, cat: rcyec-hil1b), IL33 (Adipogen, cat: AG-40B-0160-C010) or IL36 cytokines (R@D, cat: 6836IL) at 100 ng/ml and incubated for 15 more minutes. Cells were harvested on ice after 1× wash with cold PBS and were centrifuged for 5 minutes at 5000 rpm at 4° C. Cells were then lysed with NP-40 buffer for 5 minutes on ice and centrifuged for 15 minutes at 15000 rpm at 4° C. Supernatants were collected and protein concentrations were determined by BCA (Thermofisher, Cat #PI23225). […] After 3× washes, ECL was applied (Thermofisher, Cat #32106) and proteins were detected after exposure to autoradioraphic films (Worldwide medical products, Cat #41101001) and protein intensity was quantitated using ImageJ software.

AML cells (patient #6) = assay: AML patient-derived sample engraftment in immunodeficient mice; format: in vivo, NSG-SGM3 immunodeficient mice
Excerpt: Methods: NSG™-SGM3 immunodeficient mice (Jackson Laboratory) were irradiated with 200 rads and then infused with AML cells (patient #6) collected from a leukapheresis sample and then treated bi-weekly with three doses of STLX2012 or control IgG1 antibody for 7 weeks. Doses were 1 mpk, 10 mpk, or 30 mpk for STLX2012, and 30 mpk for control IgG1.

[2] = system: AML patient-derived samples; assay: Colony formation of AML patient-derived samples, alone or with Azacitidine or Venetoclax; format: cell-based, human; conditions: 2 weeks
Description: Methods: Clonogenicity of AML patient-derived samples were assayed using STLX2012 alone or in combination with Azacitindine (Aza) or Venetoclax (Ven). AML patient-derived samples were plated in MethoCult media and cultured in the presence of STLX2012 (50 μg/mL) or control IgG1 antibody (50 μg/mL), plus or minus Azacitidine (100 nM) or Venetoclax (100 nM), for 2 weeks. Colony numbers were counted manually using an inverted microscope and normalized to the control IgG1 control.

[3] = system: AML patient-derived leukemic cells; assay: Jurkat-Lucia NFAT-CD16 ADCC reporter assay against AML patient-derived leukemic cells; format: cell-based, human
Excerpt: Methods: ADCC activity is mediated through binding of NK cell's CD16 receptors to the Fc region of antibodies. A Jurkat-Lucia NFAT-CD16 ADCC Reporter cell assay (Invivogen, Cat #jktl-nfat-cd16; https://www.invivogen.com/jurkat-lucia-nfat-adcc-adcp-cells) was used to analyze IL1RAP mAb STLX2012 for ADCC activity. Briefly, the Jurkat cell line was engineered to express the cell surface Fc receptor CD16A (FcγRIIIA) and the Lucia luciferase reporter gene. ADCC is triggered by CD16A cross-linking upon antigen-bound antibody binding at the surface of immune effector cells. Cells are maintained in the presence of zeocin (100 μg/ml) and blasticidin (10 μg/ml).

[4] = system: IL1-induced downstream signaling (phospho-ERK, AKT, p38, NFκB) in A6L, CAL33, 5637, A549, Colo205, HCC70 cells; assay: IL1 signaling in solid tumor cancer cells, Western blot; format: cell-based; conditions: antibody 20 μg/ml
Description: as §1

[5] = system: IL1-induced downstream signaling (phospho-NFκB) in K562 cells; assay: IL1 signaling in CML (K562) cells, Western blot; format: cell-based, human; conditions: antibody 20 μg/ml, IL1β 100 ng/ml
Description: as §1

[6] = system: IL1-induced downstream signaling (phospho-ERK, NFκB) in AML patient samples; assay: IL1 signaling in AML patient samples, Western blot; format: cell-based, human; conditions: antibody 20 μg/ml, IL1β 100 ng/ml
Description: as §1

[7] = system: IL33-induced NFκB activity; assay: HEK-BlueIL33 NFκB Reporter Assay; format: cell-based, human; conditions: nM range, read-out: IC50, inhibition of IL33-induced NFκB activity
Excerpt: HEK-Blue IL33 (Invivogen, Cat #hkb-hil33) cell line was used to monitor NFκB activity upon stimulation with IL33 cytokine. The secreted embryonic alkaline phosphatase reporter gene (SEAP) is inducible expressed under the control of IFN-β minimal promoter fused to NFκB/AP-1. HEK-BlueIL33 cells were also generated upon stable transfection with human IL1RL1 (ST2) gene. Specificity to IL33 cytokine was achieved by blockage of TNF-α and IL1 response. Cells are maintained in the presence of hygromycin (200 μg/ml), zeocin (100 μg/ml) and blasticidin (10 μg/ml).
For the functional assay, cells were plated at a density of 5×10^4 cells/well in 96-well plates. Cells were treated with each antibody at the highest concentration of 200 μg/ml followed by seven serial 1:3 dilutions and incubated for 45 minutes at 37° C./5% CO^2 in humified incubator. Cells were then stimulated with IL33 (12 μM) and incubated overnight at 37° C./5% CO2 in humified incubator. Every treatment was conducted in triplicates. Following, supernatants from each well were mixed with Quanti-Blue substrate (Invivogen, Cat #rep-qb1) according to manufacturer's recommendations and secreted SEAP was measured using spectrophotometer at 650 nm.

[8] = day 50, 1, 10, 30 mpk bi-weekly 7 weeks, vs control IgG

B1: 74804_12A21B: anti-IL1RAP mAb; VH SEQ ID NO:6, VL SEQ ID NO:23, κ light chain (antibody, V domains shown)
VH: QVQLLQSGAEVKKPGSSVKVSCKASGGTFSIYAIDWVRQAPGQGLEWMGGIIPIFGTANSAQKFQGRVTITADKSTSTAYMELSSLRSEDTAVYYCARNGATSDAFDMWGQGTMVTVSS
VL: EIVLTQSPGTLSLSPGERATLSCRASLSVSSNYLAWFQQRPGQAPRLLIHGVSRRATGIPDRFSGSGSGTDFTLTISRLEPEDFAVYYCQQYGSSPLTFGGGTKVEIK
modifications: 74804_12A21B VH and 74804_29D13A VH; 74804_12A21B VL
Inhibition of IL36 signaling (phosphorylation of ERK, AKT, p38 and NFκB) [1]: Inhibition of IL36 signaling in solid tumor cancer cells | bone marrow (BM) chimerism, dose dependence (AML cells (patient #6); 1, 10, 30 mpk): dose-dependent reduction in bone marrow (BM) chimerism | human CD45+AML cells in spleens (AML cells (patient #6); [8]): significantly reduced human CD45+AML cells | human CD45+AML cells in the bone marrow (AML cells (patient #6); [8]): significantly reduced human CD45+AML cells | Colony numbers, combined with Azacitidine ([2]; STLX2012 50 μg/mL + Azacitidine 100 nM): Further reduction in colony numbers | Colony numbers, combined with Venetoclax ([2]; STLX2012 50 μg/mL + Venetoclax 100 nM): Further reduction in colony numbers | Colony numbers ([2]; STLX2012 50 μg/mL alone, vs control IgG1): decreased colony numbers in AML patient samples | ADCC activity (reporter) [3]: showed ADCC activity | Inhibition of IL1 signaling (phosphorylation of ERK, AKT, p38 and NFκB) [4]: inhibited IL1 signaling in solid tumor cancer cells | Inhibition of IL1 signaling (phosphorylation of NFκB) [5]: inhibited IL1 signaling in these CML (K562) cells | Inhibition of IL1 signaling (phosphorylation of ERK and NFκB) [6]: inhibited IL1 signaling in AML patient samples

B2: 74804_43F04A: anti-IL1RAP mAb; VH SEQ ID NO:7, VL SEQ ID NO:22, κ light chain (antibody, V domains shown)
VH: QVQLLQSGAEVKKPGSSVKVSCKASGGTFSIYAIDWVRQAPGQGLEWMGGIIPIFGTENSAQNFQGRITITADKSTNTAYMELSSLRSEDTAVYYCARNGATSDAFDIWGQGTMVTVFS
VL: EIVLTQSPGTLSLSPGERATLSCRASLSVSSNYLAWFQQRPGQAPRLLIYGVSRRATGIPDRFSGSGSGTDFTLTISRLEPEDFAVYYCQQYGSSPLTFGGGTKVEIK
modifications: 74804_43F04A VH; 74804_07K10A VL, 74804_29D13A VL and 74804_43F04A VL
IC50 [7]: 9.62 nM
